Molecular target: T1, human platelet glycoprotein VI (human, UniProt Q9HCN6 21-339)
T1 sequence (looked up): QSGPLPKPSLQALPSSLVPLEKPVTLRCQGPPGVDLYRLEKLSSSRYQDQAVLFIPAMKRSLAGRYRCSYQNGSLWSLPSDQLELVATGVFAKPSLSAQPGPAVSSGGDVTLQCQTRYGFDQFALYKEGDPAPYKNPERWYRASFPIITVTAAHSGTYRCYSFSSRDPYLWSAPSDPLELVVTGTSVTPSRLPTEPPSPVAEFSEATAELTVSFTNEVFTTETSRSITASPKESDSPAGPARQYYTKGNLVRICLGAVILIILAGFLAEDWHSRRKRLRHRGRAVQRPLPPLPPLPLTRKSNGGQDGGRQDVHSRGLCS
Assay: cell-based or functional assay

IC50 of inhibition of collagen-induced (3 ug/ml) human platelet aggregation ex vivo: 0.12 µg/mL
B1: hGP 5C4 Fab (Fab, V domains shown)
VH: EVKLQESGGGLVQPGRSLKLSCTASGFTFSDYFMSWVRQAPTRGLEWVASISSGGASAYWRDSVKGRFTISRDNAKSALYLQMDSLRSEDTATYFCARGELDFDYWGQGVMVAVSS
VL: ADPNSTLLSASVGDRVTLNCTASQNVYKNLAWYQQKLGEAPRLLLYSANSQTGIPSRFSGSGSGPDFTLTISSLQPEDVASYFCQQYYSGNTFGAGTKLELKR

From patent WO2005054294A2 (dated 2005)
